B1: Monoclonal antibody (mAb) 8a-1 (antibody, V domains shown)
VH: EVQLQESGGGLVQPGGSLKLSCAASGFTFSSYTMSWVRQTPEKRLEWVAYISNGGGSISYPDTVKGRFTISRDNAKNTLYLHMSSLKSEDTAMYHCAREGLRPGDRDRYYAMDYWGQGTSVTVSS
VL: DIVITQSPALMAAFPGDRVTITCSVSSSVSSSNLHWYRQKSETSPKPWIYGTSTLASGVPVRFSGSGSGTSYSLTISSMEAEDAATYYCQQWSSYPLTFGAGTKLELKR
notes: also called clone 8a-1; first antibody
B2: Monoclonal antibody (mAb) 27b-2 (antibody, V domains shown)
VH: EVQLQESGGGLVKLGGSLKLSCAASGFTFSTYYMSWVRQTPEKRLELVAAINSNGGGTYYPDNVKGRFTISRDNAKNTLYLQMSSLKSEDTALYYCTNYFGSTYAMDYWGQGTSVTVSS
VL: DIVLTQSPLSLPVSLGDQASISCRSSQSLVHSNGNTYLHWYLQKPGQSPKLLIYKVSNRFSGVPDRFSGSGLGTDFTLKIIRVEAEDLGVYFCSQNTHVPFTFGSGTKLEIKR
notes: also called clone 27b-2; second antibody

Target: T1, SARS-CoV spike protein as made in Vero E6 cells infected with SARS-CoV (SARS-CoV, UniProt P59594 14-1255)
T1 construct: whole, on cells
Test: IFA on Vero E6 cells infected with SARS-CoV

Row | Binder | binding result
1 | B1 | binds
2 | B2 | binds

Source: patent publication US20220089691A1 (NATIONAL DEFENSE MEDICAL CENTER, published 2022)
